We go through three substances from patent US20220220204A1.

Test [1] addresses PD-L1 (UniProt Q9NZQ7). The experiment in a line: FACS binding.
Test [2] addresses human PD-L1 (PD-L1 aAPC/CHO-K1 cells) (human) (UniProt Q9NZQ7). The experiment in a line: cell-based or functional assay.
Test [3] addresses human LAG-3 (LAG-3 effector Jurkat T cells) (human) (UniProt P18627). Kind of test: cell-based or functional assay.

Sequence of human PD-L1 (PD-L1 aAPC/CHO-K1 cells) (human) (Q9NZQ7 19-290): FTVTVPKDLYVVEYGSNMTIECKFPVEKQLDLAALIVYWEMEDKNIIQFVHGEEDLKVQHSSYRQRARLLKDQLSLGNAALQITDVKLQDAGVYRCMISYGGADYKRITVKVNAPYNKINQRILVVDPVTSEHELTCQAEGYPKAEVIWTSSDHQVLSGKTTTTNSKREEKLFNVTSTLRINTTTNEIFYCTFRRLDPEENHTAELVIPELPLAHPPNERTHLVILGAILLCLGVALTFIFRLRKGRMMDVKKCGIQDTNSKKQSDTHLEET
Sequence of human LAG-3 (LAG-3 effector Jurkat T cells) (human) (P18627 23-525): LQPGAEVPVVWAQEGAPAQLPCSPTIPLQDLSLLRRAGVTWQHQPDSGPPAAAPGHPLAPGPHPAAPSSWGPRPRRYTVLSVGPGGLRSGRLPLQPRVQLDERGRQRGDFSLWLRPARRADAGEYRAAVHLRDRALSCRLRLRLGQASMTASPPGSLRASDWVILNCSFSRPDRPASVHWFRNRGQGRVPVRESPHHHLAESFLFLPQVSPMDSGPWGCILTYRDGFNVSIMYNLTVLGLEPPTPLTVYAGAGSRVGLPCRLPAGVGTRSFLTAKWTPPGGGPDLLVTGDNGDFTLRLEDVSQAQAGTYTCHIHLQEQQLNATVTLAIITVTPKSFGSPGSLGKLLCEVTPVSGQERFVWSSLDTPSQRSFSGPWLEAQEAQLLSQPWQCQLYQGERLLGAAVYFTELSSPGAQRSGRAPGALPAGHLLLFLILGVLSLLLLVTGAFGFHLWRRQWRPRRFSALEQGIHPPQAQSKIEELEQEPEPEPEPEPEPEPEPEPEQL
Sequence of PD-L1 (Q9NZQ7 19-290): as the sequence (Q9NZQ7 19-290) above

human IgG: the EC50 – broadly, the concentration at which the effect is half-maximal – in test [1] amounted to 8.88 pM.

Turning to Tecentriq biosimilar (antibody), in test [2], the Bottom (PD-1/PD-L1 blockade bioassay) amounted to 28700, the EC50 (PD-1/PD-L1 blockade bioassay) is 0.342, the Log EC50 (PD-1/PD-L1 blockade bioassay) is -0.467 and the Top (PD-1/PD-L1 blockade bioassay) was found to be 117000.

Regarding 25F7 biosimilar (antibody), in test [3], the Bottom (LAG-3 blockade bioassay) is 312000, the Log EC50 (LAG-3 blockade bioassay) was found to be 0.841 and the Top (LAG-3 blockade bioassay) is 918000.
